Reference: patent US20260242478A1 (published 2026)
Where no end group is shown, it is not given here.

Assays:
[1] = biological target: T1, Anti-PSMA Fab (SEQ ID NOs: 19, 20); test: phage binding ELISA; biotinylated PSMA Fab captured on neutravidin plate, bound phage detected with anti-M13-HRP
T1 construct: In the phage ELISA the Fab was biotinylated and captured on neutravidin coated plates; also called 006 PSMA Fab
Experimental: (§1) Clonal phage were harvested as crude supernatants and screened via standard ELISAs. […] Prior to the addition of clonal phage. wells were incubated with blocking buffer and PSMA antigen or blocking buffer alone. Without washing or aspirating, clonal phage supernatants were then added to the wells and incubated for a short time. Wells were then washed followed by detection of bound phage using a horse radish conjugated anti-M13 antibody.

[2] = biological target: T1, Anti-PSMA Fab (SEQ ID NOs: 19, 20); test: phage binding ELISA on captured PSMA Fab, wells pre-incubated with PSMA antigen as competitor
Experimental: as §1

[3] = biological target: T2, Anti-PSMA Fab (SEQ ID NOs: 19, 20); test: phage ELISA on captured PSMA Fab, wells pre-incubated with the competitor PSMA antigen
T2 construct: Biotinylated PSMA Fab captured on neutravidin coated plates in the phage ELISA; also called 006 PSMA Fab
Experimental: as §1

[4] = biological target: T2, Anti-PSMA Fab (SEQ ID NOs: 19, 20); test: phage ELISA; biotinylated PSMA Fab on neutravidin plate, bound phage detected with anti-M13-HRP;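 note: crude clonal phage supernatants added, without a wash, to wells pretreated with PSMA antigen in blocking buffer or with blocking buffer only, then briefly incubated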
Experimental: as §1

[5] = biological target: T3, Anti-PSMA Fab (SEQ ID NOs: 19, 20); test: phage binding ELISA; PSMA Fab on plate pre-incubated with PSMA antigen as competitor, anti-M13 HRP detection;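 note: crude clonal phage supernatants added without washing to wells preincubated with PSMA in blocking buffer, compared with wells receiving blocking buffer only, then bound phage detected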
T3 construct: In the phage ELISA the PSMA Fab was biotinylated and captured on neutravidin coated plates; also called 006 PSMA Fab
Experimental: as §1

[6] = biological target: T3, Anti-PSMA Fab (SEQ ID NOs: 19, 20); test: phage binding ELISA; biotinylated PSMA Fab on neutravidin plate, clonal phage supernatant, anti-M13 HRP detection;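 note: wells were preincubated with blocking buffer either containing PSMA antigen or without it before crude phage supernatant was added, briefly incubated, then washed prior to detection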
Experimental: as §1

Binder	Anti-PSMA Fab signal in the presence of PSMA (phage binding ELISA) [3]	Anti-PSMA Fab signal (phage binding ELISA) [4]	Anti-PSMA Fab signal in the presence of PSMA [5]	Anti-PSMA Fab (SEQ ID NOs: 19, 20) signal [6]	also measured
IPKLCKPSWMCLFY (Clonal phage of the Peptide-180 library) [Phage-2098]	–	–	–	–	Anti-PSMA Fab (SEQ ID NOs: 19, 20) signal [1]: 1.73; Anti-PSMA Fab signal in the presence of PSMA [2]: 0.185
YDHWCTPMWMCHGM (tested as crude clonal phage supernatant) [Phage-2069]	0.0688	1.76	–	–	–
QVNWCIPPWMCAGL (cysteine pairing not given here; also: fused to phage pIII, pIII sequence and linker not given here, Tested as clonal phage supernatant; not shown: pIII filament protein of the bacteriophage to which the peptide is fused for display) [Phage-2081 (peptide-180 library clone, SEQ ID NO: 2397)]	–	–	0.0898	1.75	–
IGPWCIPPWMCDHR (tested as crude clonal phage supernatant) [Phage-2071]	0.0893	1.76	–	–	–
WSNWCTPRWVCKTI (Tested as clonal phage supernatant; not shown: pIII filament protein of the bacteriophage to which the peptide is fused for display) [Phage-2083 (peptide-180 library clone, SEQ ID NO: 2399)]	–	–	0.0752	1.75	–
EGKWCTPIWMCQGF (tested as crude clonal phage supernatant) [Phage-2062]	0.143	1.77	–	–	–
ADKWCTPTWMCQWL (Tested as clonal phage supernatant; not shown: pIII filament protein of the bacteriophage to which the peptide is fused for display) [Phage-2075 (peptide-180 library clone, SEQ ID NO: 2391)]	–	–	0.0745	1.76	–
WGKLCIPEWMCTTQ (Clonal phage of the Peptide-180 library) [Phage-2095]	–	–	–	–	Anti-PSMA Fab (SEQ ID NOs: 19, 20) signal [1]: 1.74; Anti-PSMA Fab signal in the presence of PSMA [2]: 0.0687
AWKSCIPSWMCEVQ (tested as crude clonal phage supernatant) [Phage-2058]	0.0942	1.77	–	–	–
IEKWCIPEWMCEYT (Tested as clonal phage supernatant; not shown: pIII filament protein of the bacteriophage to which the peptide is fused for display) [Phage-2078 (peptide-180 library clone, SEQ ID NO: 2394)]	–	–	0.0826	1.75	–
EHIWCKPDWMCSGF (tested as crude clonal phage supernatant) [Phage-2060]	0.0871	1.77	–	–	–
AEKLCIPPWMCMLS (Tested as clonal phage supernatant; not shown: pIII filament protein of the bacteriophage to which the peptide is fused for display) [Phage-2077 (peptide-180 library clone, SEQ ID NO: 2393)]	–	–	0.101	1.76	–
VAKMCIPSWMCAEQ (cysteine pairing not given here; also: fused to phage pIII, pIII sequence and linker not given here, Tested as clonal phage supernatant; not shown: pIII filament protein of the bacteriophage to which the peptide is fused for display) [Phage-2073 (peptide-180 library clone, SEQ ID NO: 2389)]	–	–	0.0548	1.76	–
SEHWCVPSWMCYGF (Tested as clonal phage supernatant; not shown: pIII filament protein of the bacteriophage to which the peptide is fused for display) [Phage-2084 (peptide-180 library clone, SEQ ID NO: 2400)]	–	–	0.0957	1.75	–
IVKWCVPEWMCEGT (cysteine pairing not given here; also: fused to phage pIII, pIII sequence and linker not given here, Clonal phage of the Peptide-180 library) [Phage-2090]	–	–	–	–	Anti-PSMA Fab (SEQ ID NOs: 19, 20) signal [1]: 1.74; Anti-PSMA Fab signal in the presence of PSMA [2]: 0.0687
YLHSCTPAWMCTGF (tested as crude clonal phage supernatant) [Phage-2064]	0.0668	1.77	–	–	–
PEKLCIPDWMCHWD (Tested as clonal phage supernatant; not shown: pIII filament protein of the bacteriophage to which the peptide is fused for display) [Phage-2082 (peptide-180 library clone, SEQ ID NO: 2398)]	–	–	0.0951	1.75	–
VEKWCIPQWMCAEM (cysteine pairing not given here; also: fused to phage pIII, pIII sequence and linker not given here, Clonal phage of the Peptide-180 library) [Phage-2088]	–	–	–	–	Anti-PSMA Fab (SEQ ID NOs: 19, 20) signal [1]: 1.74; Anti-PSMA Fab signal in the presence of PSMA [2]: 0.0696
VGNWCKPAWMCEMM (Tested as clonal phage supernatant; not shown: pIII filament protein of the bacteriophage to which the peptide is fused for display) [Phage-2074 (peptide-180 library clone, SEQ ID NO: 2390)]	–	–	0.0681	1.76	–
VHQMCQPWWMCWET (Tested as clonal phage supernatant; not shown: pIII filament protein of the bacteriophage to which the peptide is fused for display) [Phage-2086 (peptide-180 library clone, SEQ ID NO: 2402)]	–	–	0.0749	1.75	–
ADKWCIPEWMCEMN (Tested as clonal phage supernatant; not shown: pIII filament protein of the bacteriophage to which the peptide is fused for display) [Phage-2076 (peptide-180 library clone, SEQ ID NO: 2392)]	–	–	0.0844	1.76	–

Binder	Anti-PSMA Fab signal in the presence of PSMA (phage binding ELISA) [3]	Anti-PSMA Fab signal (phage binding ELISA) [4]	Anti-PSMA Fab signal in the presence of PSMA [5]	Anti-PSMA Fab (SEQ ID NOs: 19, 20) signal [6]	also measured
VSIMCKPMWMCSGT (tested as crude clonal phage supernatant) [Phage-2066]	0.072	1.77	–	–	–
FEKWCIPAWMCAAV (Clonal phage of the Peptide-180 library) [Phage-2092]	–	–	–	–	Anti-PSMA Fab (SEQ ID NOs: 19, 20) signal [1]: 1.74; Anti-PSMA Fab signal in the presence of PSMA [2]: 0.112
QGIMCIPEWMCSAI (Clonal phage of the Peptide-180 library) [Phage-2097]	–	–	–	–	Anti-PSMA Fab (SEQ ID NOs: 19, 20) signal [1]: 1.73; Anti-PSMA Fab signal in the presence of PSMA [2]: 0.0664
SEKWCIPDWMCQVW (tested as crude clonal phage supernatant) [Phage-2068]	0.0929	1.76	–	–	–
DTMRCVPEWMCTGF (tested as crude clonal phage supernatant) [Phage-2059]	0.066	1.77	–	–	–
WDNWCTPLWMCQGF (Tested as clonal phage supernatant; not shown: pIII filament protein of the bacteriophage to which the peptide is fused for display) [Phage-2080 (peptide-180 library clone, SEQ ID NO: 2396)]	–	–	0.0794	1.75	–
FEMWCTPSWMCDGF (tested as crude clonal phage supernatant) [Phage-2070]	0.0932	1.76	–	–	–
VVHWCIPSWMCTEN (Clonal phage of the Peptide-180 library) [Phage-2094]	–	–	–	–	Anti-PSMA Fab (SEQ ID NOs: 19, 20) signal [1]: 1.74; Anti-PSMA Fab signal in the presence of PSMA [2]: 0.0941
PDHWCIPSWMCMSQ (Clonal phage of the Peptide-180 library) [Phage-2096]	–	–	–	–	Anti-PSMA Fab (SEQ ID NOs: 19, 20) signal [1]: 1.74; Anti-PSMA Fab signal in the presence of PSMA [2]: 0.0974
PIKLCTPSWMCIGF (tested as crude clonal phage supernatant) [Phage-2063]	0.107	1.77	–	–	–
PVKWCIPSWMCSVD (tested as crude clonal phage supernatant) [Phage-2067]	0.0738	1.76	–	–	–
QGNWCKPAWMCSGF (cysteine pairing not given here; also: fused to phage pIII, pIII sequence and linker not given here, Tested as clonal phage supernatant; not shown: pIII filament protein of the bacteriophage to which the peptide is fused for display) [Phage-2072 (peptide-180 library clone, SEQ ID NO: 2388)]	–	–	0.0983	1.76	–
ETRWCVPEWMCYGI (cysteine pairing not given here; also: fused to phage pIII, pIII sequence and linker not given here, Clonal phage of the Peptide-180 library) [Phage-2091]	–	–	–	–	Anti-PSMA Fab (SEQ ID NOs: 19, 20) signal [1]: 1.74; Anti-PSMA Fab signal in the presence of PSMA [2]: 0.0943
VEKWCIPTWMCQAM (cysteine pairing not given here; also: fused to phage pIII, pIII sequence and linker not given here, Clonal phage of the Peptide-180 library) [Phage-2089]	–	–	–	–	Anti-PSMA Fab (SEQ ID NOs: 19, 20) signal [1]: 1.74; Anti-PSMA Fab signal in the presence of PSMA [2]: 0.0844
FEKWCIPSWMCSGP (cysteine pairing not given here; also: fused to phage pIII, pIII sequence and linker not given here, Clonal phage of the Peptide-180 library) [Phage-2087]	–	–	–	–	Anti-PSMA Fab (SEQ ID NOs: 19, 20) signal [1]: 1.75; Anti-PSMA Fab signal in the presence of PSMA [2]: 0.097
VETWCTPRWMCEGF (Clonal phage of the Peptide-180 library) [Phage-2093]	–	–	–	–	Anti-PSMA Fab (SEQ ID NOs: 19, 20) signal [1]: 1.74; Anti-PSMA Fab signal in the presence of PSMA [2]: 0.0881
ESKWCTPPWMCMTD (Tested as clonal phage supernatant; not shown: pIII filament protein of the bacteriophage to which the peptide is fused for display) [Phage-2085 (peptide-180 library clone, SEQ ID NO: 2401)]	–	–	0.0945	1.75	–
EMKWCIPAWMCQSH (tested as crude clonal phage supernatant) [Phage-2061]	0.0858	1.77	–	–	–
DWRLCIPEWMCERL (Tested as clonal phage supernatant; not shown: pIII filament protein of the bacteriophage to which the peptide is fused for display) [Phage-2079 (peptide-180 library clone, SEQ ID NO: 2395)]	–	–	0.0875	1.75	–
AAKMCVPWWMCEVM (tested as crude clonal phage supernatant) [Phage-2065]	0.0753	1.77	–	–	–
